The values that follow are results of earlier work, collected in PMC5725453.

The term Kd denotes a measure of binding affinity in units of concentration.

For the series, the target named is PI4KB (Homo sapiens) (UniProt Q9UBF8).
UniProt Q9UBF8, sequence (Q9UBF8 2-816): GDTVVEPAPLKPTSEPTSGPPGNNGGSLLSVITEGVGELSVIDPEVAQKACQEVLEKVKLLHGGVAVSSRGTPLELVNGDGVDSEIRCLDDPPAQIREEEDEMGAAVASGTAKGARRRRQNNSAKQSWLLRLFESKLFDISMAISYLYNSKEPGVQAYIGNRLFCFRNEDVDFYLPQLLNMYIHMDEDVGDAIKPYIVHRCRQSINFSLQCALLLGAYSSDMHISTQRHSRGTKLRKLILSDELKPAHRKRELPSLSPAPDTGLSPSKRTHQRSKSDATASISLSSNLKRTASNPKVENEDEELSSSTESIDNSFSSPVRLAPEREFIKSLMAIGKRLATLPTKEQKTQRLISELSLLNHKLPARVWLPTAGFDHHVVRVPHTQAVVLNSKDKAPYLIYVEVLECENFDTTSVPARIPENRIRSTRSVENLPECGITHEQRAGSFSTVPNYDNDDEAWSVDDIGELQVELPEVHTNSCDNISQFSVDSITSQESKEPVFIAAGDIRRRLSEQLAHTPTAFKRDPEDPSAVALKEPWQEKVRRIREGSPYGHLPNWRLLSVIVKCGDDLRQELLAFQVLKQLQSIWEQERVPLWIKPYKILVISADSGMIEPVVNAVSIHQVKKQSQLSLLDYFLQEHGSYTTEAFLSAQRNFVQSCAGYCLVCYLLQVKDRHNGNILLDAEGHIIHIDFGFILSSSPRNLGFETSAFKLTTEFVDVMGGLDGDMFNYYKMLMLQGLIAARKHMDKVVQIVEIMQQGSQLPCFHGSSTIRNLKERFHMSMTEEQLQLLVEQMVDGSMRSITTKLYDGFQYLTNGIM

As for ACBD3 (from UniProt Q9H3P7), the Kd is 320 nM.
